According to EP2108954A1, “A test system for detecting intracellular cyclic nucleotide level and methods and uses thereof” (Max-Planck-Gesellschaft zur Förderung der Wissenschaften …, priority 2008, dated 2009):
The star is where a group is joined. Myristoyl = CCCCCCCCCCCCCC(=O)*

Molecular target: T1, Or83b (Drosophila melanogaster, UniProt Q9VNB5)
T1 sequence (Q9VNB5 1-486): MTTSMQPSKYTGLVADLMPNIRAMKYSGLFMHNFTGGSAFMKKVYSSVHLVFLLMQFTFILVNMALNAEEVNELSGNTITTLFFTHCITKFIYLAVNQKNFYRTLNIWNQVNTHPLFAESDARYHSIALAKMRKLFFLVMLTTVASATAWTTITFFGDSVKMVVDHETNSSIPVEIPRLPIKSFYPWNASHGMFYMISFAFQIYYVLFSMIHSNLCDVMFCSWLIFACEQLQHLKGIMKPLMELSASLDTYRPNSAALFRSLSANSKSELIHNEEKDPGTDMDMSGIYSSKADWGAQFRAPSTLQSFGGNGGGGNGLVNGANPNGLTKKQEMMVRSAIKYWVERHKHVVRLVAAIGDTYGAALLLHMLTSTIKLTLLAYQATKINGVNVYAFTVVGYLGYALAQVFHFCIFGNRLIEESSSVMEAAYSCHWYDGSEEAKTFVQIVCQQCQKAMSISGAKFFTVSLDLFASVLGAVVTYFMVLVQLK
Assay: Whole-cell patch-clamp of HEK293 cells expressing Or83b alone
Assay type: cell-based
Design: expressed in transfected cells; host or cells: HEK293
Conditions: 1 µM; n = 6
Protocol: HEK293 cells were cultured as described by Wicher and colleagues (Wicher et al., J. Biol. Chem. 281, 3227-36 (2006)). In brief, HEK293 cells were cultured at a density of ∼2*10^4 per 35-mm dish and transfected with 1 µg pcDNA3-DOR22a-GFP and 1 µg pcDNA3-DOR83b-GFP (Neuhaus, et al., Nat. Neurosci. 8, 15-17 (2005); DNAs were a generous gift of Dr. E. Neuhaus and Dr. H. Hatt) using Roti-Fect transfection kit (Roth, Karlsruhe, Germany). In some experiments we transfected cells with pcDNA3-DOR22a-GFP or pcDNA3-DOR83b-GFP alone. We also examined the properties of DOR47a, which was cloned, using standard molecular biology methods into a pcDNA3.1(-) expression vector. To test for putative G-protein coupling, cells were transfected with the respective OR-DNA together with 1.5 µg hHCN2/pcDNA3 (provided by M. Biel, Munich, Germany), with 1 µg hKCNQ4/pcDNA3.1 or with 1 µg hCNGA2/pCMV6-XL4 (Origene, Rockville, MD, USA).
Ion currents in HEK293 cells were measured with the patch-clamp technology as described (Wicher et al, J. Biol. Chem. 281, 3227-36 (2006)). In brief, ion currents in HEK293 cells were measured at room temperature using whole-cell patch-clamp with appropriate compensation of series resistance and of capacitive currents. Additional experiments were performed in the outside-out configuration. […]

“myristoylated PKA inhibiting peptide 14-22 amide (Myristoyl-SGRTGRRNA-NH2; SMILES CCCCCCCCCCCCCC(=O)N[C@@H](CO)C(=O)NCC(=O)N[C@@H](CCCNC(=N)N)C(=O)N[C@H](C(=O)NCC(=O)N[C@@H](CCCNC(=N)N)C(=O)N[C@@H](CCCNC(=N)N)C(=O)N[C@@H](CC(N)=O)C(=O)N[C@@H](C)C(N)=O)[C@@H](C)O; UniProt P61925 14-22, looked up, fragment) [PKI1422]” was tested, and the “effect of preincubation on ion currents elicited by 8-bromo-cAMP” value was “not significantly altered”.
